In test [1] the target is BaL-gp120 (HIV-1 BaL). As to the kind of experiment: ELISA. Background: In an ELISA, binding on a coated surface is turned into a signal by an enzyme label.
The target of a further test is gp120-b12-ScFV. As to the kind of experiment: ELISA.
Another test has as its target gp120-VRC01-ScFV. As to the kind of experiment: ELISA.
For the next test, the target named is gp120-JR4-ScFV. As to the kind of experiment: ELISA.
A further test addresses gp120-JR48.1-ScFV. The test is described as follows: ELISA.
A further test has as its target FLSC R/T (HIV-1) (UniProt P01730). The test is described as follows: ELISA.
The target in a further test is FLSC (HIV-1) (UniProt P01730). As to the kind of experiment: capture ELISA.
Test [2] concerns the target BaL-gp120-Y61A (HIV-1 BaL). The test is described as follows: capture ELISA.
Test [3] has as its target BaL-gp120-W35A (HIV-1 BaL). The test is described as follows: capture ELISA.
Test [4] has as its target BaL-gp120-S200A (HIV-1 BaL). As to the kind of experiment: capture ELISA.
Test [5] deals with BaL-gp120 (HIV-1 BaL). As to the kind of experiment: capture ELISA.
For test [6], the target named is BaL-gp120-S158A (HIV-1 BaL). The test is described as follows: capture ELISA.
In the next test the target is core-D7 (HIV-1). The test is described as follows: capture ELISA.
Test [7] has as its target BaL-gp120-S334A (HIV-1 BaL). The test is described as follows: capture ELISA.
Test [8] deals with BaL-gp120-K487AK490A (HIV-1 BaL). As to the kind of experiment: capture ELISA.
Test [9] concerns the target BaL-gp120-K500A (HIV-1 BaL). The test is described as follows: capture ELISA.
Test [10] addresses BaL-gp120-E47AE91A (HIV-1 BaL). The test is described as follows: capture ELISA.
The target of the next test is core-V3-D7 (HIV-1). The test is described as follows: capture ELISA.
Test [11] has as its target BaL-gp120-V496A (HIV-1 BaL). The test is described as follows: capture ELISA.
The target in test [12] is BaL-gp120-P498A (HIV-1 BaL). As to the kind of experiment: capture ELISA.
Test [13] deals with BaL-gp120-D57AD62A (HIV-1 BaL). The test is described as follows: capture ELISA.
Test [14] has as its target BaL-gp120-D62A (HIV-1 BaL). The test is described as follows: capture ELISA.
Test [15] deals with BaL-gp120-D57AD78A (HIV-1 BaL). The test is described as follows: capture ELISA.
Test [16] addresses BaL-gp120-P76A (HIV-1 BaL). The test is described as follows: capture ELISA.
For test [17], the target named is BaL-gp120-E32A (HIV-1 BaL). As to the kind of experiment: capture ELISA.
In test [18] the target is BaL-gp120-I420R (HIV-1 BaL). The test is described as follows: capture ELISA.
The target of test [19] is BaL-gp120-R476AR480A (HIV-1 BaL). As to the kind of experiment: capture ELISA.
The target in test [20] is BaL-gp120-P493A (HIV-1 BaL). As to the kind of experiment: capture ELISA.
For test [21], the target named is BaL-gp120-K46A (HIV-1 BaL). As to the kind of experiment: capture ELISA.
Test [22] has as its target BaL-gp120-V68A (HIV-1 BaL). As to the kind of experiment: capture ELISA.
In test [23] the target is BaL-gp120-T455A (HIV-1 BaL). The test is described as follows: capture ELISA.
The target of test [24] is BaL-gp120-E47A (HIV-1 BaL). The test is described as follows: capture ELISA.
Test [25] has as its target BaL-gp120-D78A (HIV-1 BaL). As to the kind of experiment: capture ELISA.
Test [26] deals with BaL-gp120-V75A (HIV-1 BaL). As to the kind of experiment: capture ELISA.
For test [27], the target named is BaL-gp120-dV3 (HIV-1 BaL). As to the kind of experiment: capture ELISA.
The target of test [28] is BaL-gp120-R58AK59A (HIV-1 BaL). As to the kind of experiment: capture ELISA.
Test [29] deals with BaL-gp120-Y40A (HIV-1 BaL). The test is described as follows: capture ELISA.
Test [30] has as its target BaL-gp120-K33A (HIV-1 BaL). The test is described as follows: capture ELISA.
Test [31] concerns the target BaL-gp120-dV2 (HIV-1 BaL). The test is described as follows: capture ELISA.
Test [32] addresses BaL-gp120-D57A (HIV-1 BaL). As to the kind of experiment: capture ELISA.
In test [33] the target is BaL-gp120-T162A (HIV-1 BaL). As to the kind of experiment: capture ELISA.
Test [34] addresses BaL-gp120-dV1 (HIV-1 BaL). The test is described as follows: capture ELISA.
Test [35] concerns the target BaL-gp120-E31A (HIV-1 BaL). The test is described as follows: capture ELISA.
The target in test [36] is BaL-gp120-H105A (HIV-1 BaL). As to the kind of experiment: capture ELISA.
Test [37] addresses BaL-gp120-W69A (HIV-1 BaL). The test is described as follows: capture ELISA.
The target of test [38] is BaL-gp120-E106AD107A (HIV-1 BaL). The test is described as follows: capture ELISA.
Test [39] deals with BaL-gp120-T303A (HIV-1 BaL). The test is described as follows: capture ELISA.
The target of test [40] is BaL-gp120-V44A (HIV-1 BaL). The test is described as follows: capture ELISA.
Test [41] concerns the target BaL-gp120-T499A (HIV-1 BaL). As to the kind of experiment: capture ELISA.
The target in test [42] is BaL-gp120-I491A (HIV-1 BaL). The test is described as follows: capture ELISA.
Test [43] has as its target BaL-gp120-G495A (HIV-1 BaL). The test is described as follows: capture ELISA.
In test [44] the target is BaL-gp120-F53A (HIV-1 BaL). As to the kind of experiment: capture ELISA.
Test [45] addresses BaL-gp120-I423A (HIV-1 BaL). The test is described as follows: capture ELISA.
For test [46], the target named is BaL-gp120-D368R (HIV-1 BaL). As to the kind of experiment: capture ELISA.
The target in test [47] is BaL-gp120-E492A (HIV-1 BaL). As to the kind of experiment: capture ELISA.
Test [48] deals with BaL-gp120-L494A (HIV-1 BaL). The test is described as follows: capture ELISA.
The target in test [49] is BaL-gp120-R476A (HIV-1 BaL). As to the kind of experiment: capture ELISA.
In test [50] the target is BaL-gp120-Y39A (HIV-1 BaL). The test is described as follows: capture ELISA.
Test [51] addresses BaL-gp120-W45A (HIV-1 BaL). The test is described as follows: capture ELISA.
The target in another test is core-V1V2-D7 (HIV-1). The test is described as follows: capture ELISA.
Test [52] concerns the target BaL-gp120-mV3 (HIV-1 BaL). As to the kind of experiment: capture ELISA.

Drawing on patent US20150299268A1, this text covers Fold of Ab needed for ELISA binding OD equal to half max on gp120 and % Binding for five substances.

As for A32 (antibody), the Fold of Ab needed for ELISA binding OD equal to half max on gp120 with BaL-gp120 (HIV-1 BaL) [1] is 1 fold; with gp120-b12-ScFV it was 0.06 fold; with gp120-VRC01-ScFV, 0.2 fold; with gp120-JR4-ScFV it was greater than 100 fold; with gp120-JR48.1-ScFV it was 0.1 fold; with FLSC R/T (HIV-1), 0.04 fold.

Turning to PG9 (antibody), the Fold of Ab needed for ELISA binding OD equal to half max on gp120 was found to be 1 fold in the test with BaL-gp120 (HIV-1 BaL) [1]; 0.06 fold in the test with gp120-b12-ScFV; 0.09 fold in the test with gp120-VRC01-ScFV; 0.02 fold in the test with gp120-JR4-ScFV; 0.07 fold in the test with gp120-JR48.1-ScFV; 8.02 fold with FLSC R/T (HIV-1).

With 2G12 (antibody), the % Binding amounted to 104% in the test with FLSC (HIV-1); 81% in test [2]; 99% in test [3]; 92% in [4]; 100% with BaL-gp120 (HIV-1 BaL) [5]; 80% in test [6]. The % Binding worked out at 100% with core-D7 (HIV-1); 16% in test [7]; 83% in [8]; 92% in test [9]; 86% in test [10]; 86% in the test with core-V3-D7 (HIV-1). For the same substance, the % Binding was found to be 96% in test [11]; 93% in test [12]; 105% in test [13]; 86% in test [14]; 95% in test [15]; 90% in test [16]. In addition, the % Binding in test [17] was determined as 93%; in test [18], 93%; in test [19], 83%; in test [20], 93%; in test [21], 92%; in test [22], 82%. The % Binding in test [23] was 87%; in test [24], 96%; in [25] it was 87%; in test [26] it was 89%; in test [27], 100%; in test [28], 88%. Moreover, the % Binding in test [29] amounted to 93%; in [30], 83%; in [31], 82%; in test [32] it was 91%; in test [33] it was 87%; in [34], 93%. In addition, the % Binding came out at 80% in test [35]; 89% in [36]; 87% in test [37]; 79% in [38]; 88% in test [39]; 93% in test [40]. Moreover, the % Binding turned out to be 100% in test [41]; 92% in test [42]; 93% in test [43]; 99% in [44]; 94% in test [45]; 82% in test [46]. In addition, the % Binding in test [47] turned out to be 93%; in [48] it was 79%; in test [49], 98%; in test [50], 89%; in [51] it was 92%; with core-V1V2-D7 (HIV-1), 100%. Also, the % Binding in test [52] was 100%. Further, the Fold of Ab needed for ELISA binding OD equal to half max on gp120 amounted to 1 fold with BaL-gp120 (HIV-1 BaL) [1]; 0.56 fold with gp120-b12-ScFV; 0.66 fold with gp120-VRC01-ScFV; 0.61 fold with gp120-JR4-ScFV; 0.58 fold with gp120-JR48.1-ScFV; 0.91 fold with FLSC R/T (HIV-1).

With PG04 (antibody), the Fold of Ab needed for ELISA binding OD equal to half max on gp120 was 1 fold with BaL-gp120 (HIV-1 BaL) [1], greater than 100 fold with gp120-b12-ScFV, 0.26 fold in the test with gp120-JR4-ScFV and 0.36 fold in the test with gp120-JR48.1-ScFV.

As for PGT128 (antibody), the Fold of Ab needed for ELISA binding OD equal to half max on gp120 with BaL-gp120 (HIV-1 BaL) [1] was 1 fold; with gp120-b12-ScFV, 0.09 fold; in the test with gp120-VRC01-ScFV it was 0.23 fold; with gp120-JR4-ScFV, 0.13 fold; with gp120-JR48.1-ScFV, 0.14 fold; in the test with FLSC R/T (HIV-1) it was 5.07 fold.
